Assay results from article PMC9175492.

Key:
[1] = target: LgBit, an 18-kDa subunit of NanoLuc; assay: split reporter
[2] = target: Kelch domain of Kelch-like ECH-associated protein 1 (Keap1); assay: fluorescence polarisation

fold induction of luminescence at 10 μM [1] [fold] | IC50 [2] [nM] | Binder
20 | – | VSGWRLFKKIS [HiBit, an 11-residue peptide derived from NanoLuc]
– | 14 | GQLDPETGEFL (here or on the partner: cyclic peptide) [cyclic peptidyl inhibitor P1, Cyclo(…)]
